The target of this assay is IgG agarose beads (Sigma). Nature of the assay: pull-down with IgG agarose beads; recovered HS^act conversion activity.

In turn, “Protein A tagged mouse r3-OST-1 (from UniProt O35310 27-311)” gave an HS^act conversion activity extracted of 7000 units and a recovery of initial HS^act conversion activity of 10%.

These data come from patent US6861254.
